Measured values from patent US12295987B2, “Method of using a GIP/GLP1 co-agonist for diabetes” (Eli Lilly and Company, priority 2018, dated 2025).
Numbered stars: 1 amine (or outer) side, 2 acyl side, 3 side chain; on linkers, the order of the positions; unused ones are H or OH. Square brackets hold non-standard residues; d marks the D form. Side chains are listed from the residue outwards. Ends that are not written are not given here. * marks the point of attachment. C20 diacid = O=C(O)CCCCCCCCCCCCCCCCCCC(=O)*; γGlu = O=C(O)[C@H](CCC(=O)[*:2])N[*:1]; AEEA = NCCOCCOCC(=O)O; Aib = CC(C)(N)C(=O)O

Target: T1, human gastric inhibitory peptide receptor (hGIPR) (Homo sapiens, UniProt P48546)
T1 construct: expressed in transfected cells; host or cells: HEK293
T1 sequence (P48546 22-466): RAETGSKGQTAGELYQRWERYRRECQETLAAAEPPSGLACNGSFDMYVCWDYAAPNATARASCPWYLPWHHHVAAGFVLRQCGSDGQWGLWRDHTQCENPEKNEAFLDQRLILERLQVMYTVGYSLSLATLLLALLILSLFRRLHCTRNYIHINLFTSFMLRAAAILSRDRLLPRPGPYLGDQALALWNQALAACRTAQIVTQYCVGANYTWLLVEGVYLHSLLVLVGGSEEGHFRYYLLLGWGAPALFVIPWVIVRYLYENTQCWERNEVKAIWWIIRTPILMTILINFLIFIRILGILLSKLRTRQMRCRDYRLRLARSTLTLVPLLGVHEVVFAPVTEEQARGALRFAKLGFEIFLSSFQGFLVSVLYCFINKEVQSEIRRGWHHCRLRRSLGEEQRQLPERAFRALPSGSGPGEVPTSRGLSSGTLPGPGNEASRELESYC
Assay: cAMP pharmacological functional assay in presence of 0.1% casein, hGIPR
Assay type: cell-based
Conditions: ratio of hGIPR to hGLP1R cAMP EC50 ratios

First: Y-Aib-EGTFTSDYSILLDK((2-[2-(2-Amino-ethoxy)-ethoxy]-acetyl)2-(γGlu)-CO—(CH2)18—CO2H)IAQ-Aib-AFIEYLIEGGPSSGAPPPS-NH2 (Y[Aib]EGTFTSDYSILLDK([AEEA-AEEA-γGlu-C20 diacid])IAQ[Aib]AFIEYLIEGGPSSGAPPPS-NH2; N-terminus assumed; SMILES CC[C@H](C)[C@H](NC(=O)[C@H](CCCCNC(=O)COCCOCCNC(=O)COCCOCCNC(=O)CC[C@H](NC(=O)CCCCCCCCCCCCCCCCCCC(=O)O)C(=O)O)NC(=O)[C@H](CC(=O)O)NC(=O)[C@H](CC(C)C)NC(=O)[C@H](CC(C)C)NC(=O)[C@@H](NC(=O)[C@H](CO)NC(=O)[C@H](Cc1ccc(O)cc1)NC(=O)[C@H](CC(=O)O)NC(=O)[C@H](CO)NC(=O)[C@@H](NC(=O)[C@H](Cc1ccccc1)NC(=O)[C@@H](NC(=O)CNC(=O)[C@H](CCC(=O)O)NC(=O)C(C)(C)NC(=O)[C@@H](N)Cc1ccc(O)cc1)[C@@H](C)O)[C@@H](C)O)[C@@H](C)CC)C(=O)N[C@@H](C)C(=O)N[C@@H](CCC(N)=O)C(=O)NC(C)(C)C(=O)N[C@@H](C)C(=O)N[C@@H](Cc1ccccc1)C(=O)N[C@H](C(=O)N[C@@H](CCC(=O)O)C(=O)N[C@@H](Cc1ccc(O)cc1)C(=O)N[C@@H](CC(C)C)C(=O)N[C@H](C(=O)N[C@@H](CCC(=O)O)C(=O)NCC(=O)NCC(=O)N1CCC[C@H]1C(=O)N[C@@H](CO)C(=O)N[C@@H](CO)C(=O)NCC(=O)N[C@@H](C)C(=O)N1CCC[C@H]1C(=O)N1CCC[C@H]1C(=O)N1CCC[C@H]1C(=O)N[C@@H](CO)C(N)=O)[C@@H](C)CC)[C@@H](C)CC) [Peptide 29]
Second: Y-Aib-EGTFTSDYSILLDKIAK((2-[2-(2-Amino-ethoxy)-ethoxy]-acetyl)2-(γGlu)-CO—(CH2)18—CO2H)-Aib-AFIEYLIEGGPSSGAPPPS-NH2 (Y[Aib]EGTFTSDYSILLDKIAK([AEEA-AEEA-γGlu-C20 diacid])[Aib]AFIEYLIEGGPSSGAPPPS-NH2; N-terminus assumed; SMILES CC[C@H](C)[C@H](NC(=O)[C@H](CCCCN)NC(=O)[C@H](CC(=O)O)NC(=O)[C@H](CC(C)C)NC(=O)[C@H](CC(C)C)NC(=O)[C@@H](NC(=O)[C@H](CO)NC(=O)[C@H](Cc1ccc(O)cc1)NC(=O)[C@H](CC(=O)O)NC(=O)[C@H](CO)NC(=O)[C@@H](NC(=O)[C@H](Cc1ccccc1)NC(=O)[C@@H](NC(=O)CNC(=O)[C@H](CCC(=O)O)NC(=O)C(C)(C)NC(=O)[C@@H](N)Cc1ccc(O)cc1)[C@@H](C)O)[C@@H](C)O)[C@@H](C)CC)C(=O)N[C@@H](C)C(=O)N[C@@H](CCCCNC(=O)COCCOCCNC(=O)COCCOCCNC(=O)CC[C@H](NC(=O)CCCCCCCCCCCCCCCCCCC(=O)O)C(=O)O)C(=O)NC(C)(C)C(=O)N[C@@H](C)C(=O)N[C@@H](Cc1ccccc1)C(=O)N[C@H](C(=O)N[C@@H](CCC(=O)O)C(=O)N[C@@H](Cc1ccc(O)cc1)C(=O)N[C@@H](CC(C)C)C(=O)N[C@H](C(=O)N[C@@H](CCC(=O)O)C(=O)NCC(=O)NCC(=O)N1CCC[C@H]1C(=O)N[C@@H](CO)C(=O)N[C@@H](CO)C(=O)NCC(=O)N[C@@H](C)C(=O)N1CCC[C@H]1C(=O)N1CCC[C@H]1C(=O)N1CCC[C@H]1C(=O)N[C@@H](CO)C(N)=O)[C@@H](C)CC)[C@@H](C)CC) [Peptide 31]
The “[hGIPR/hGLP1R] EC50 Ratio” value of the first is higher: 7.99 for the first, 6.44 for the second.

Going from “Y-Aib-EGTFTSDYSILLDKIAQ-Aib-AFIEYLIEGGPK((2-[2-(2-Amino-ethoxy)-ethoxy]-acetyl)2-(γGlu)-CO—(CH2)18—CO2H)SGAPPPS-NH2 (Y[Aib]EGTFTSDYSILLDKIAQ[Aib]AFIEYLIEGGPK([AEEA-AEEA-γGlu-C20 diacid])SGAPPPS-NH2; N-terminus assumed; SMILES CC[C@H](C)[C@H](NC(=O)[C@H](CCCCN)NC(=O)[C@H](CC(=O)O)NC(=O)[C@H](CC(C)C)NC(=O)[C@H](CC(C)C)NC(=O)[C@@H](NC(=O)[C@H](CO)NC(=O)[C@H](Cc1ccc(O)cc1)NC(=O)[C@H](CC(=O)O)NC(=O)[C@H](CO)NC(=O)[C@@H](NC(=O)[C@H](Cc1ccccc1)NC(=O)[C@@H](NC(=O)CNC(=O)[C@H](CCC(=O)O)NC(=O)C(C)(C)NC(=O)[C@@H](N)Cc1ccc(O)cc1)[C@@H](C)O)[C@@H](C)O)[C@@H](C)CC)C(=O)N[C@@H](C)C(=O)N[C@@H](CCC(N)=O)C(=O)NC(C)(C)C(=O)N[C@@H](C)C(=O)N[C@@H](Cc1ccccc1)C(=O)N[C@H](C(=O)N[C@@H](CCC(=O)O)C(=O)N[C@@H](Cc1ccc(O)cc1)C(=O)N[C@@H](CC(C)C)C(=O)N[C@H](C(=O)N[C@@H](CCC(=O)O)C(=O)NCC(=O)NCC(=O)N1CCC[C@H]1C(=O)N[C@@H](CCCCNC(=O)COCCOCCNC(=O)COCCOCCNC(=O)CC[C@H](NC(=O)CCCCCCCCCCCCCCCCCCC(=O)O)C(=O)O)C(=O)N[C@@H](CO)C(=O)NCC(=O)N[C@@H](C)C(=O)N1CCC[C@H]1C(=O)N1CCC[C@H]1C(=O)N1CCC[C@H]1C(=O)N[C@@H](CO)C(N)=O)[C@@H](C)CC)[C@@H](C)CC) [Peptide 41]” to “Y-Aib-EGTFTSDYSILLDKIAQ-Aib-AFIEYLIEGGPSSGAPK((2-[2-(2-Amino-ethoxy)-ethoxy]-acetyl)2-(γGlu)-CO—(CH2)18—CO2H)PS-NH2 (Y[Aib]EGTFTSDYSILLDKIAQ[Aib]AFIEYLIEGGPSSGAPK([AEEA-AEEA-γGlu-C20 diacid])PS-NH2; N-terminus assumed; SMILES CC[C@H](C)[C@H](NC(=O)[C@H](CCCCN)NC(=O)[C@H](CC(=O)O)NC(=O)[C@H](CC(C)C)NC(=O)[C@H](CC(C)C)NC(=O)[C@@H](NC(=O)[C@H](CO)NC(=O)[C@H](Cc1ccc(O)cc1)NC(=O)[C@H](CC(=O)O)NC(=O)[C@H](CO)NC(=O)[C@@H](NC(=O)[C@H](Cc1ccccc1)NC(=O)[C@@H](NC(=O)CNC(=O)[C@H](CCC(=O)O)NC(=O)C(C)(C)NC(=O)[C@@H](N)Cc1ccc(O)cc1)[C@@H](C)O)[C@@H](C)O)[C@@H](C)CC)C(=O)N[C@@H](C)C(=O)N[C@@H](CCC(N)=O)C(=O)NC(C)(C)C(=O)N[C@@H](C)C(=O)N[C@@H](Cc1ccccc1)C(=O)N[C@H](C(=O)N[C@@H](CCC(=O)O)C(=O)N[C@@H](Cc1ccc(O)cc1)C(=O)N[C@@H](CC(C)C)C(=O)N[C@H](C(=O)N[C@@H](CCC(=O)O)C(=O)NCC(=O)NCC(=O)N1CCC[C@H]1C(=O)N[C@@H](CO)C(=O)N[C@@H](CO)C(=O)NCC(=O)N[C@@H](C)C(=O)N1CCC[C@H]1C(=O)N[C@@H](CCCCNC(=O)COCCOCCNC(=O)COCCOCCNC(=O)CC[C@H](NC(=O)CCCCCCCCCCCCCCCCCCC(=O)O)C(=O)O)C(=O)N1CCC[C@H]1C(=O)N[C@@H](CO)C(N)=O)[C@@H](C)CC)[C@@H](C)CC) [Peptide 46]”, the “[hGIPR/hGLP1R] EC50 Ratio” value falls from 10.00 to 8.54.
